Experimental data reported in patent publication CN111620946A (JIANGSU DISEASE CONTROL AND PREVENTION CENTER JIANGSU …, dated 2020).

B1: FC08 (antibody, V domains shown)
VH: VQLLQQSGAEVKKPGSSVKVSCKASGGTFSSYAISWVRQAPGQGLEWMGGIIPILGIANYAQKFQGRVTITADKSTSTAYMELSSLRSEDTAVYYCVRERGYSGYGAAYYFDYWGQGTLVTVSS
VL: QSVLTQPPSVSGAPGQRVTISCTGSSSNIGAGYDVHWYQQLPGTAPKLLIYGNSNRPSGVPDRFSGSKSGTSASLAITGLQAEDEADYYCQSYDSSLSGSVFGGGTKLTVL
B2: FC05 (antibody, V domains shown)
VH: VQLLEQSGAEVKKPGASVRVSCKVSGYTLPEVAMHWVRQAPGKGLEWMGGFDPEDGETIYAQKFQGRVTMTEDTSTDTAYMELSSLRSEDTAVYYCATTTPFSSSFWFDPWGQGTLVTVSS
VL: QSVLTQAPSVSGAPGQKVTISCSGSSSNIGNNYVSWYQQLPGTAPKLLIYDNNKRPSGIPDRFSGSKSGTSATLGITGLQTGDEADYYCGTWDSSLSAVVFGGGTKLTVL
B3: FC11 (antibody, V domains shown)
VH: EVQLLESGGGVVQPGRSLRLSCAASGFTFSYYGMHWVRQAPGTGLEWVAVISYDGSNEYYADSVKGRFTISRDNSKNTLYLQMNSLRAEDTAVYYCAKAMFLGDSSGLTGLDMDVWGQGTTVTVSS
VL: DIELTQSPGTLSLSPGERATLSCRASQSVSSYLAWYQQKPGQAPRLLIYDASNRATGIPARFSGSGSGTDFTLTISSLEPEDFALYYCQQRGNWPPTFGGGTKLEIK

How the values were obtained:
[1] = target: 重组SARS-CoV-2刺突蛋白胞外区 (extra cellular domain of spike protein) (SARS-CoV-2, UniProt P0DTC2 14-1213); assay: SPR, Biacore 8K, S-ECD coupled to a CM5 chip, antibody 125nM~7.8nM in solution
[2] = target: SARS-CoV-2 S蛋白 (spike) on live virus, 分离株 BetaCoV/JS03/human/2020 (SARS-CoV-2, UniProt P0DTC2 14-1273); assay: cell-based or functional assay
[3] = target: SARS-CoV-2 S蛋白 (spike) on live virus, 分离株 BetaCoV/JS03/human/2020 (SARS-CoV-2, UniProt P0DTC2 14-1273); assay: cell-based or functional assay; remark: listed apart in the source

| Binder | Kd [1] [pM] | IC50(ng/ml), 体外中和实验 (live virus, Vero E6, CPE) [2] [ng/mL] | IC50(ng/ml), 体外中和实验 (live virus, Vero E6, CPE) [3] [ng/mL] |
| --- | --- | --- | --- |
| B1 | 800 | 325 |  |
| B2 |  |  | 142 |
| B3 | 500 | 818 |  |
